# Measured values taken from the DeepSol protein solubility set.
# Assay: soluble on expression in E. coli; label from the status in PepcDB or PDB records
row,Sequence,soluble on expression in E. coli
1,SNAMSVQLVKGVNLHVIPTEKYKTVRLLVRFNTRLNHETITKRTLLSSLMETNSLNYPNQVKLSERLAELYGASFGIGVSKKGNQHWFNISMNIVNDHYLQDSQVLAEAVDFLKEIIFAPNIQAGQFEAETFQREKENLKAYLESIVEDKQTYASLALQSVYFNQSEDQKIPSFGTVAALAEETAASLAAYYQKMLAEDQVDIFVLGDVNEAELVPLFKQLPFTPREEGKAAIFYNQPIRNVIEERTEREVLAQSKLNLAYNTDIYYGDSYYFALQVFNGIFGGFPHSKLFMNVREKEHLAYYASSSIDTFRGFMTVQTGIDGKNRNQVLRLISTELENIRLGKIRELEIEQTKAMLKNQYILALDNAGAWLEKEYLNELMPQTMLTAEEWIARINAVTIPEIQEVAKRLELQAIFFLEGETEND,soluble
2,MGSDKIHHHHHHMSLSRNSDLHMHSTASDGGYSPTELMEKCHQANLKFVALTDHDTVNGIEEAKQTAHRLGFILIPGIELSTKASGQSVHMLGYGIDWKNDTLKRRLDRQQDIRKQRLEQILLKLKAAGVPLEQDAVLRYADGGAIGRPHVAKALMDKGYVRSVQEAFEHYLAEGRPCYVKRQEYISVEQAIAWIHQAGGVAIVAHPGYYDLDDQLIGWVREYGLDGIEVYHRDHSREVVAHYEQLCKRMEAETGRRLLRTGGSDFHHESYGRTAAPLGTTRIPDQLTYELLHDLERKKTRA,not soluble
3,MVEATAQETDRPRFSFSIAAREGKARTGTIEMKRGVIRTPAFMPVGTAATVKALKPETVRATGADIILGNTYHLMLRPGAERIAKLGGLHSFMGWDRPILTDSGGFQVMSLSSLTKQSEEGVTFKSHLDGSRHMLSPERSIEIQHLLGSDIVMAFDECTPYPATPSRAASSMERSMRWAKRSRDAFDSRKEQAENAALFGIQQGSVFENLRQQSADALAEIGFDGYAVGGLAGGEGQDEMFRVLDFSVPMLPDDKPHYLMGVGKPDDIVGAVERGIDMFDCVLPTRSGRNGQAFTWDGPINIRNARFSEDLKPLDSECHCAVCQKWSRAYIHHLIRAGEILGAMLMTEHNIAFYQQLMQKIRDSISEGRFSQFAQDFRARYFARNS,soluble
4,MGSDKIHHHHHHMKDTNRTHSADAATVEEALAADNHQGIVDSEGATALAMQNTLLTPRFYTTDFDEMDSLDVSSVREDWDTLIAQMKSDPNKGHFKKNEDWDSVDWDGMEPALKREFIDFLVSSCTAEFSGCVLYKEMKRRGNNEDIVTLFQLMARDEARHAGFINDALREAGIAVNLGFLTQKKKYTYFRPKFIYYATYLSEKIGYARYITIFRHLEANPEHRFHPIFKWFREWCNDEFSHGEAFALIMKSDPKFTQKWQNKLWIKFFLTAVYSTMYVRDHQRPVFHAALGVDPDWYAHEVFTKTSEITKQIFPITLDIENPRWQRGLEAMQRANVDLADAKANGKLFKRIGASIRAGAAFVNLFTIPANKHDAPASVRLEPAY,not soluble
5,GMVPMTRFDSATEVVRVGENRYAVELDPGYLIGTAMNGGYLMTVLQRSALAESDHLHAVSSSYHFHRPASSGPAEIETRVLKRGRTVTTVQTTLFQEGRTILTGTLATATLDPHAEPRYAAPQPAIPPQHQCRRVDPRQSHLPDDGFLARVDVDFSPDSYAALARERTVTTPELCGYVDLSARDGGSAKDPLAFLPLAVDALPPIVSLLVDWSWAPTVELTWHLRAIPEPGPLAFRSTCALVSDGWFDENVDLWDARGRLVAQSRQLARVGR,soluble
6,MAHHHHHHMAARTDDPRLLSLFSAQREEDADIVIIGFPYDEGCVRNGGRAGAKKGPAAFRFFLQRLGSVNNLELNVDASHLKLYDAGDITASTLEEAHEKLESKVFTVLARGAFPFVIGGGNDQSAPNGRAMLRAFPGDVGVINVDSHLDVRPPLQDGRVHSGTPFRQLLEESSFSGKRFVEFACQGSQCGALHAQYVRDHQGHLMWLSEVRKKGAVAALEDAFGLTGKNTFFSFDVDSLKSSDMPGVSCPAAVGLSAQEAFDMCFLAGKTPTVMMMDMSELNPLVEEYRSPRVAVYMFYHFVLGFATRPKPKAEN,soluble
7,GSHMVGPTYSTAVLNCLKNLDLWCFDVFSLNQAADDHALRTIVFELLTRHNLISRFKIPTVFLMSFLDALETGYGKYKNPYHNQIHAADVTQTVHCFLLRTGMVHCLSEIELLAIIFAAAIHDYEHTGTTNSFHIQTKSECAIVYNDRSVLENHHISSVFRLMQDDEMNIFINLTKDEFVELRALVIEMVLATDMSCHFQQVKTMKTALQQLERIDKPKALSLLLHAADISHPTKQWLVHSRWTKALMEEFFRQGDKEAELGLPFSPLCDRTSTLVAQSQIGFIDFIVEPTFSVLTDVAEKSVQPLADEDSKSKNQPSFQWRQPSLDVEVGDPNPDVVSFRSTWVKRIQENKQKWKERAASGITN,soluble
